Reference: paper PMC11609826 (Cancer Discovery, 2024)

What was measured:
Experiment in all cases: ELISA
[1] = biological target: inducible T-cell costimulator (ICOS), recombinant (Homo sapiens (assumed), UniProt Q9Y6W8)
CD28, recombinant = CD28, recombinant (Homo sapiens (assumed), UniProt P10747)
[2] = biological target: B- and T-lymphocyte attenuator (BTLA), recombinant (Homo sapiens (assumed), UniProt Q7Z6A9)
PD-1, recombinant = PD-1, recombinant (Homo sapiens (assumed), UniProt Q15116)
Sequence of PD-1, recombinant (Q15116 25-288): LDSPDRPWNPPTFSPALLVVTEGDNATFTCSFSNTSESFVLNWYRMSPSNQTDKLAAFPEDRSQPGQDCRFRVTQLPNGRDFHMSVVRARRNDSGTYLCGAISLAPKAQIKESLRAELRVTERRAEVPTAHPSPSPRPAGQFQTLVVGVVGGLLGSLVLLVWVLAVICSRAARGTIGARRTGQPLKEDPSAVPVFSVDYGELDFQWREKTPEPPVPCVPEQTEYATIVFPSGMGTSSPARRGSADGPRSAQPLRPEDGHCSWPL

Sequence of inducible T-cell costimulator (ICOS), recombinant (Q9Y6W8 21-199): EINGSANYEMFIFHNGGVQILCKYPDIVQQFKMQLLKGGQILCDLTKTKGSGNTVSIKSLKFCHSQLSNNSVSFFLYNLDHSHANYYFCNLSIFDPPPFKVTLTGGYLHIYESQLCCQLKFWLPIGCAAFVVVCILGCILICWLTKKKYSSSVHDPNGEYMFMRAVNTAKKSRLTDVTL

- binding result [1]: no binding (tested: 1,000 ng/mL)
- binding result (CD28, recombinant): no binding (tested: 1,000 ng/mL)
- binding result [2]: no binding (tested: 1,000 ng/mL)
- binding result (PD-1, recombinant): no binding (tested: 1,000 ng/mL)
B1: Botensilimab (antibody, V domains shown)
VH: EVQLVESGGGLVKPGGSLRLSCAASGFTFSSYSMNWVRQAPGKGLEWVSSISSSSSYIYYAESVKGRFTISRDNAKNSLYLQMNSLRAEDTAVYYCARVGLFGPFDIWGQGTLVTVSS
VL: EIVLTQSPGTLSLSPGERATLSCRASQSVSRYLGWYQQKPGQAPRLLIYGASTRATGIPDRFSGSGSGTDFTLTITRLEPEDFAVYYCQQYGSSPWTFGQGTKVEIK
